In test [1] the target is T1, recombinant human IGF-1 (human, UniProt P05019 49-118).
T1 construct: mature; also called insulin-like growth factor-1
The test can be described thus: SPR (Biacore), antibody capture method, IGF antigen injected. Here is the method: (§1) The sensor chip is coated with approximately 1000 RU of the reference antibody in flow cell 1 and approximately 1000 RU of a rabbit-anti-human Fc-gamma-specific antibody in flow cell 2 using the coupling reagents from an amine coupling kit. A target of 1000 RU is set in the surface preparation wizard of the Biacore 3000 software at a flow rate of 5 μl/min. Running buffer used is HBS-EP. […] The IGF antigens are diluted to 500, 250, 125, 62.5 and 31.3 nM in running buffer (HCB) and the different antigen dilutions are run singly over Fc1 and Fc2 with random order. Blank runs using running buffer only are run in-between. A blank run curve is subtracted from each binding curve before affinity analysis. Data evaluation is performed using the BIAevaluation software (version 4.1, Biacore, Freiburg, Germany). The dissociation and association phases of the kinetics are fitted separately. For the separate fit of the kdiss values a time-frame of the initial 200-300 seconds in the dissociation phase is used (range of steady decrease of signal). For the separate fit of the kₐₛₛ values, initial time frames of approx 100 seconds are used (range of steady increase of signal) and for calculation the individual kdiss values are used with the 1:1 Langmuir association model. The average values with the standard deviations of the kinetic data together with the corresponding dissociation (KD) and association (KA) constants are calculated.
(§2) The analysis is initially performed by capturing the IGF antibodies on the sensor chip and injecting a range of antigen concentrations, thereby eliminating the possibility of an avidity effect.
(In general: Surface plasmon resonance follows binding to a sensor surface in real time, without labels.)

Test [2] deals with T2, recombinant human IGF-2 (human, UniProt P01344 25-91).
T2 construct: mature; also called insulin-like growth factor-2
The test is described as above. The method, then: as §1, §2

Test [3] deals with T3, murine IGF-1 (murine, UniProt P05017 49-118).
T3 construct: bought reagent; also called mouse IGF-1
The test is described as above. The method, then:
as §1, §2

Test [4] addresses T4, murine IGF-2 (murine, UniProt P09535 25-91).
T4 construct: bought reagent; also called mouse IGF-2
The description is as above. Here is the method: as §1, §2

Test [5] addresses T5, rat IGF-1 (rat, UniProt P08025 49-118).
T5 construct: bought reagent
The test is described as above. The method, then:
as §1, §2

In test [6] the target is T6, rat IGF-2 (rat, UniProt P01346 25-91).
T6 construct: bought reagent
Described as above. Here is the method: as §1, §2

For test [7], the target named is recombinant human insulin (human, UniProt P01308 25-54; P01308 90-110). Kind of test: ELISA titration of the IgG1 on coated human insulin, OD 450. For orientation: In an ELISA, binding on a coated surface is turned into a signal by an enzyme label.
In test [8] the target is T1, recombinant human IGF-1. Kind of test: SPR (Biacore), IGF coating method, bivalent antibody injected (avidity). Here is the method: (§3) Affinity constants are also determined for binding of the IGF antibodies to human IGF-1 and IGF-2 using a method where the IGF ligands are coated to the Biacore sensor chip and a range of antibody concentrations injected. The approximately 30-50-fold increase in the binding constants using this method compared with the initial antibody capture method is likely due to an avidity effect where both antibody binding domains interact with an IGF molecule.

Test [9] addresses T2, recombinant human IGF-2. Described as above. The method, then: as §3
For test [10], the target named is T7, biotinylated IGF-1 (UniProt P05019 49-118, biotinylated (site not stated)).
T7 construct: also called IGF-1 ligand
Kind of test: competition ELISA: antibody blocks binding of biotinylated IGF-1 to coated IGF-1R, fluorescence readout. Here is the method:
To identify IGF antibodies that neutralize the ability of IGF-1 and IGF-2 to bind to the IGF-1R, an ELISA is established by coating plates with 1.5 μg/ml recombinant human IGF-1R (R&D Systems) which allows the binding of biotinylated IGF-1 and biotinylated IGF-2. Bound IGF-1 or IGF-2 is detected using alkaline phosphatase-conjugated streptavidin (1:10,000 dilution) (Roche). […] Antibody Fab fragments that block the binding of biotinylated ligand are identified by a reduction in fluorometric signal.

Test [11] has as its target T7, biotinylated IGF-1. Kind of test: competition ELISA: antibody titrated against biotinylated IGF-1 binding to coated IGF-1R; antibody 40186; mass concentration.
Test [12] concerns the target T1, recombinant human IGF-1. Kind of test: SPR (Biacore), IGF coating method, bivalent antibody injected (avidity); IGF coated on the chip, bivalent antibody injected (avidity).
The target in test [13] is T5, rat IGF-1. Kind of test: ELISA titration of the IgG1 on coated rat IGF-1, OD 450.
For test [14], the target named is T6, rat IGF-2. The test can be described thus: ELISA titration of the IgG1 on coated rat IGF-2, OD 450.
In test [15] the target is T2, recombinant human IGF-2. The test can be described thus: ELISA titration of the IgG1 on coated human IGF-2, OD 450.
The target in test [16] is T3, murine IGF-1. The test can be described thus: ELISA titration of the IgG1 on coated murine IGF-1, OD 450.
In test [17] the target is T4, murine IGF-2. The test can be described thus: ELISA titration of the IgG1 on coated murine IGF-2, OD 450.
The target in test [18] is T7, biotinylated IGF-1. The test can be described thus: competition ELISA: antibody titrated against biotinylated IGF-1 binding to coated IGF-1R; antibody 40183; mass concentration.

Data on two molecules can be found in patent publication US20100196395A1 (Boehringer Ingelheim, published 2010).

T5 sequence (P08025 49-118 limits assumed): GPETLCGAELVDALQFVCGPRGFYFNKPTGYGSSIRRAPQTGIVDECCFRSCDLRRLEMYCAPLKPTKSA
T6 sequence (P01346 25-91 limits assumed): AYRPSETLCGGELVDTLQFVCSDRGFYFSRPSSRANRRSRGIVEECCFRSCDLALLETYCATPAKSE
recombinant human insulin, sequence (P01308 25-54 limits assumed, chain 1 of 2): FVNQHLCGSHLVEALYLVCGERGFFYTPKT
recombinant human insulin, sequence (P01308 90-110 limits assumed, chain 2 of 2): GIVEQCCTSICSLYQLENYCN

B1: antibody 40186 (antibody, human IgG1, lambda, V domains shown)
VH: QVELVESGGGLVQPGGSLRLSCAASGFTFSNYWMHWVRQAPGKGLEWVSGISGWSSWTYYADSVKGRFTISRDNSKNTLYLQMNSLRAEDTAVYYCARFGIDAYTKVYFDYWGQGTLVTVSS
VL: DIELTQPPSVSVAPGQTARISCSGDNIPLKYVSWYQQKPGQAPVLVIHDDNKRPSGIPERFSGSNSGNTATLTISGTQAEDEADYYCQSWASTGVVFGGGTKLTVLG
notes: Fully human IgG1 / Ig lambda from the HuCAL Gold library
Usually koff stands for the rate constant with which the complex falls apart. Usually kon stands for the second-order rate constant of association. A word on the IC50: it is the midpoint of a concentration-inhibition curve. Read a high IC50 as weaker potency. Take B1: the Ka with recombinant human IGF-1 [1] stood at 2.16e+08 M⁻¹; in the test with recombinant human IGF-2 [2], 2.86e+08 M⁻¹; in the test with murine IGF-1 [3], 1.44e+08 M⁻¹; with murine IGF-2 [4], 1.08e+08 M⁻¹; with rat IGF-1 [5], 3.67e+08 M⁻¹; in the test with rat IGF-2 [6], 1.67e+08 M⁻¹. In addition, the Ka with recombinant human IGF-2 [9] amounted to 1.45e+10 M⁻¹; with recombinant human IGF-1 [12] it was 1.22e+10 M⁻¹. The Kd with recombinant human IGF-1 [1] stood at 4.66 nM; in the test with recombinant human IGF-2 [2], 3.62 nM; with murine IGF-1 [3] it was 7.1 nM; with murine IGF-2 [4], 9.56 nM; in the test with rat IGF-1 [5], 2.76 nM; with rat IGF-2 [6], 6.49 nM. Moreover, the Kd with recombinant human IGF-1 [8] was 0.14 nM; with recombinant human IGF-2 [9], 0.072 nM. The koff was 0.0027 s⁻¹ in the test with recombinant human IGF-1 [1]; 0.00362 s⁻¹ in the test with recombinant human IGF-2 [2]; 0.00329 s⁻¹ in the test with murine IGF-1 [3]; 0.00586 s⁻¹ with murine IGF-2 [4]; 0.00301 s⁻¹ in the test with rat IGF-1 [5]; 0.00351 s⁻¹ with rat IGF-2 [6]. In addition, the koff worked out at 0.00023 s⁻¹ with recombinant human IGF-1 [8] and 0.000164 s⁻¹ with recombinant human IGF-2 [9]. The kon was 581000 M⁻¹ s⁻¹ with recombinant human IGF-1 [1]; 1.03e+06 M⁻¹ s⁻¹ with recombinant human IGF-2 [2]; 466000 M⁻¹ s⁻¹ with murine IGF-1 [3]; 632000 M⁻¹ s⁻¹ in the test with murine IGF-2 [4]; 1.1e+06 M⁻¹ s⁻¹ with rat IGF-1 [5]; 602000 M⁻¹ s⁻¹ in the test with rat IGF-2 [6]. Further, the kon in the test with recombinant human IGF-1 [8] was 2.1e+06 M⁻¹ s⁻¹; in the test with recombinant human IGF-2 [9], 2.26e+06 M⁻¹ s⁻¹. The binding result in [7] was “no binding (tested: 100 ng/ml)”. Also, the “IC50 (read off the curve)” value with biotinylated IGF-1 [10] is about 5 ng/mL. Moreover, in the test with biotinylated IGF-1 [11], the IC50 was about 5 ng/mL.

B2: antibody 40183 (antibody, human IgG1, lambda, V domains shown)
VH: QVELVESGGGLVQPGGSLRLSCAASGFTWSSFAMSWVRQAPGKGLEWVSYISYLGSYTGYADSVKGRFTISRDNSKNTLYLQMNSLRAEDTAVYYCARGTKFDYWGQGTLVTVSS
VL: DIVLTQPPSVSGAPGQRVTISCTGSSSNIGTYDVHWYQQLPGTAPKLLIYSNSKRPSGVPDRFSGSKSGTSASLAITGLQSEDEADYYCSITRVFGGGTKLTVLG
notes: Fully human IgG1 / Ig lambda
Regarding B2, the binding result with rat IGF-1 [13] is recorded as “binds”; with rat IGF-2 [14] it was “binds”; with recombinant human IGF-2 [15] it was “binds”; with murine IGF-1 [16], “binds”; in the test with murine IGF-2 [17] it was “binds”; in [7], “no binding (tested: 100 ng/ml)”. Moreover, the “IC50 (read off the curve)” value with biotinylated IGF-1 [10] was about 3 ng/mL. This molecule registered a concentration for half-maximal inhibition (IC50) in the test with biotinylated IGF-1 [18] of about 5 ng/mL.
